Assay results: the DeepSol protein solubility set

Assay: soluble on expression in E. coli; label from the status in PepcDB or PDB records

Row | Sequence | soluble on expression in E. coli
1 | MTIYVVTPTYARLVQKAELVRLSQTLSLVPRLHWLLVEDAEGPTPLVSGLLAASGLLFTHLVVLTPKAQRLREGEPGWVHPRGVEQRNKALDWLRGRGGAVGGEKDPPPPGTQGVVYFADDDNTYSRELFEEMRWTRGVSVWPVGLVGGLRFEGPQVQDGRVVGFHTAWEPSRPFPVDMAGFAVALPLLLDKPNAQFDSTAPRGHLESSLLSHLVDPKDLEPRAANCTRVLVWHTRTEKPKMKQEEQLQRQGRGSDPAIEV | soluble
2 | MGSDKIHHHHHHMDNDWIADYLRPRLARDNGEHLSRQLYRQLRELIGQRRLAGGSVLPASRALAQAMQLGRNTVLSAYDQLAAEGYLESRHGSGTYVCDVFTNSTSQTSHSTAPARPLSQRGQRLTASSRLPVRKLGAFVPGLPELELFPHKAWQQCLARQQRSAPLEWLHYQHQGGLPALQSALIQYLYLTRSVRCEPEQIIIAPGAQNALTLLAQLLADPGDAIWLEEPGYAGAQAAMQAAGLRCQAIRVDEQGLRPDPEAAPPRIIYVTPAHQYPTGAVMALPRRLELLAHARRHGSWIIEDDYDGEFCYASAPLAALQSLDRDGRVIYLGTFSKVMFPSLKLAYLVLPPELVDSYRRCQARLQGEGSYLQQAAVADFIAQGHFARHIRHMRELYQRRQQLLKHAADQYLGHAMSLHGGDAGMHLLAELPDGFDEWELQAAAAERLLWLRPLARHFLDTPYRNGLVLGYAGIDDHAIRPAVQQLADLLETRLK | not soluble
3 | MAHHHHHHMNRLTNTNKGYTTNKEYISNNAQKNICTINYGQTYSNILNDEEKEKILQQYIYTLSHLSIIDIDREKDISLNISLLLKACLASHNYIKNVEIYTSQIKNQDICSFIYENRTDFEDFVNTHILKYIEFFNKDKIEDTLQSYIKDKILYDNELNIFNIIKNNNIELRKDILQDISFECIRLNKIIQYSLAVNKLDLFSYHIIFKIFMYFKTDQFYYHLFLNNIQKIKYYYSIKNITDQHKEIIYKIVDKYLYIIHYMNNMYQNRDIKNV | not soluble
4 | MGSDKIHHHHHHMKRSKYQLGRIGRLTIDRIVSIGAYLDGGDTDILLPNRYLPSDAAPGMEVEVFVYHDNEGRLIATTMRPLVEVGQVALLHAVSVTDSGAYMEWGIHKDLFVPFREQTQLIREGGRYFVYAYIDHVSGKIVGSAKLSKHLGNIPPSYSPGDKVSALVYERIDPGYRMIVDHTHWGMIYSDTLPMPLAIGAQVKAFVIRLRDDGKIDLSLKPIGYDRIDSESERLLHMLQRRGGRLPIGDKSSPEEIMQHTGMSKKTFKMAVGMLYRRRLIRITPTAITLNETVSTPEA | not soluble
5 | MGSDKIHHHHHHQVSGDVVKIGILNDQSGLYADLAGAGSVQAARMAIEEFGGQVLGKKIELVWADHQNKADIGAGIARAWFDREGVDAIADFSNSSVGFAVQGLANERKKITLVAAGSSDFTGKACSPFSTQWVYNSYSNGYGLARLLASRGMDSVFLLTVDYTFGHAFANDVRKAVTENGGKVLGEVRFPLNSFDLSSYLLQAQASKAKLIVTAAAGSDMTSTVKQANEFGITPGQALAAPAVFITDVNSMGLQAAQGLQFVTAFYWDRTPDSRAWAEKFFARQKAMPSMTQAGVYSAVRHYLKAVEAAKTDDAVAVAAKMRELPVRDMNIENGRVREDGQVMHDMYLVEVKKPDESRRAWDYYKVLTTVPADQAFQALADSACPLVGKQ | not soluble
6 | MNSALDFAFPATFPVKSSSVGGHRIASPGFSSRLRLCSLPPSSSIKAESCLKRDVHRQRSSLESMFCYDKPIPEEIIEEPVGLSMSEREIGDNQRCTCCEAKGALLCSTCSGTGLYVDSIMESQGIIVKVRCLGCGGSGNIMCKLCGGRGHVGH | not soluble
7 | GPGSMVGPYNSKAGVVLVCDIFGLLPNSKRFADVLAEHGFLVAMPDFFGPLAWPESEWPADFQSMRWLQYVEKITQFDAFVPQMEAAIAVLRQMGCAKVGAIGMCWGAALPFMMAAQGKIDAAAAAHPSFFTADAVRAAKTPVLVLPSKDEPPMDDVEAAVNSHPMEPHVHKRFDALHHGFFGARYNPDAYTAEELKDVETARQLVLDFFKKSLH | not soluble
8 | MKKLVHLSDFHYDGLRLSEEMLAEAIAVSNQVQPDLVLLTGDYVTTTPQPIHQLAKRLQKLQSHAGIYAILGNHDLYQKNSKTEITQALTKAGIQVLWNEIAYPLGEELPIVGIVDYYYREFNPQLLFNQLEPTTPRIVLCHNPDTAAMLQGWRVDLQLSGHTHGGLEHHHHHH | not soluble
9 | MGSSHHHHHHSSGLVPRGSHMARQNLKSTDRAVQQMLDKAKREGIQTVWDRYEAMKPQCGFGETGLCCRHCLQGPCRINPFGDEPKVGICGATAEVIVARGLDRSIAAGAAGHSGHAKHLAHTLKKAVQGKAASYMIKDRTKLHSIAKRLGIPTEGQKDEDIALEVAKAALADFHEKDTPVLWVTTVLPPSRVKVLSAHGLIPAGIDHEIAEIMHRTSMGCDADAQNLLLGGLRCSLADLAGCYMGTDLADILFGTPAPVVTESNLGVLKADAVNVAVHGHNPVLSDIIVSVSKEMENEARAAGATGINVVGICCTGNEVLMRHGIPACTHSVSQEMAMITGALDAMILDYQCIQPSVATIAECTGTTVITTMEMSKITGATHVNFAEEAAVENAKQILRLAIDTFKRRKGKPVEIPNIKTKVVAGFSTEAIINALSKLNANDPLKPLIDNVVNGNIRGVCLFAGCNNVKVPQDQNFTTIARKLLKQNVLVVATGCGAGALMRHGFMDPANVDELCGDGLKAVLTAIGEANGLGGPLPPVLHMGSCVDNSRAVALVAALANRLGVDLDRLPVVASAAEAMHEKAVAIGTWAVTIGLPTHIGVLPPITGSLPVTQILTSSVKDITGGYFIVELDPETAADKLLAAINERRAGLGLPW | soluble
10 | ASWSHPQFEKGAMSNYSMSRGHSDKCVGAEDILSEIKEAEKVLNAASDELKREGHNVKTFIDRTSTTQSANLNKIVNWHNANPADVHISVHLNAGKGTGVEVWYYAGDEKGRKLAVEISAKMAKALGLPNRGAKATKDLRFLNSTKGTAVLLEVCFVDRKEDANAIHKSGMYDKLGIAIAEGLTGKTVAAKNPNRHSGAVVDSVPMLSKMDFKSSPIKMYKAGSSLLVYEHNKYWYKAYINDKLCYIYKSFCISNGKKDAKGRIKVRIKSAKDLRIPVWNNTKLNSGKIKWYSPGTKLSWYDNKKGYLELWYEKDGWYYTANYFLK | soluble
11 | MKTENAKTNQTLVENSLNTQLSNWFLLYSKLHRFHWYVKGPHFFTLHEKFEELYDHAAETVDTIAERLLAIGGQPVATVKEYTEHASITDGGNETSASEMVQALVNDYKQISSESKFVIGLAEENQDNATADLFVGLIEEVEKQVWMLSSYLG | soluble
12 | MSLAFGLDKLVDLLKAAGEPTRFRLLALLSAGDLTVTDLTEILGQSQPRISRHLKLLTEEGLIERYQEGAWAYFRLRQDGEPAVVVRQLLGAASPSDAVLQRDSERLATVKRVRAERAQDYFSRNASAWDELRRLHVSDEAVEGALLKLVGTTPIDSLLDLGTGTGRILQLLSGIYRRAIGVDASRDMLSVARANLDKAGVGNASVRHGDILNLPLEGQDFDLIVIHQVLHFLDQPEIALSEAARMLRPGGRLIVIDLAPHSFEYLRDEHAHVRLGFSHPLMEEWMKKAGLSLERAVDLHSEKASDEALDVTIWVARDQRLLMADDVVQEAVLLRSGRAEGHHHHHH | soluble
13 | MSLTSTIIDVRAKLYTWKGDVQKIHENFCTNAADLVNQDNISNDRWATYKFLSWLVVEVETSDGHIGIGNAALSPKPCKSVVDNYLKPAIIGESIWDYEHIWQKMYRQTLAWGRKGIGMTAISAVDIAIWDALGKTVKQPVFKLLGGKTKSKLPCYASKLYSQPLDSLAKEAKDYLDQGFKAMKLRLGWGPNDGAEGMRKNIELIRTVRSVVGEDVDLMADVYMGWTFEYAKRMMRLIDNENLRWLEEPVIADDIDGYADLKASCQTPISGGEHEYTLFGFRQLLEKKAVDVVQFDTNRVGGITQAHKICALAEAFQIPVIPHAGQVHNFHISMSSINAPIVEYFPFWPVEIGNELFWYIFDGEPQAKDGYIELDDTKPGLGIELSEKYLKDFVIEVEGHHHHHH | soluble
14 | MGSDKIHHHHHHMANKNLYGGNPERGWCMVLPGFFSEDIRVDNHAANGRSSKSFISEGRWAKVISQVKKGDYVFIQFGHNDEKADSARHTDPGTTFDDNLRRFVNETRVKGGIPVLFNSIVRRNFVQPEDASIATDARRAPGEQELPKEVNVLYDTHGAYLDSPRNVAKEMGVAFIDMNKITHDLVQGLGPAESKKLFMFVEPEKVPAFPKGREDNTHLNVYGARTIAGLTVDAIAKEIPELAKYVRHYDYVVAQDGTGDFFTVQEAINAVPDFRKNVRTTILVRKGTYKEKIIIPESKINISLIGEDGVVLTNDDFANKKNVFGENMGTSGSSSCYIYAPDFYAENITFENSAGPVGQAVACFVSADRAFFKNCRFLGYQDTLYTYGKHSRQYYEDCYIEGTVDFIFGWSVAVFNRCHIHSKRDGYVTAPSTDQGKKYGYVFYDCRLTADPDVAKVYLSRPWRPYAQAVFIRCELGKHILPEGWHNWGKKEAEKTVFYAEYDSHGEGANPKARAAFSRQLKNLKGYEMETVLAGEDGWNPLKNDSVK | not soluble
15 | DVKVQGCVEDADLLIVGFGGTYGHLYSAMEEMNHAGKKVALAHFVHLNPLPHNTAEVLKKYKKVVVAEQNLGQFAGYLRMKVDGFVPYQFNEVKGQPFVVSELVDAFTEILNK | not soluble
16 | MGSDKIHHHHHHMQKRNELPGHLAVAPFTLDSARASGVSRARLRRKDVVHVGRGLYRPSDWNFELEAAARALSTASPGAWISHVTAARLHCQLLPPWLADSTELHLSKPRALPSVRRSGVIGHTVVALEDEIESIDGLRVSTRSRTWLDLARRLPVSDLVCMGDQLIRVPRVAFEGRTRPYDTLDGLRTLVGRHPNLQGVVRAREALHLMRVGADSAPESLLRLAMADAGLPEPELQLALRPTDAVSPTADLGYRHRRLAIQYDGEHHLLDAQIFSDRRRDKAFESAGWTVLILGKDDLADGCRPAVSKIKRLLRTAWLDHPQASGFADAG | not soluble
17 | GPGSMSTPNLDALLGVPLAAELVARAGGLLALCKLSDAALRMLGTEEFQSIASSSRARQLHAGLLLKAPLFTNAFGDEEEVDTTDRKAAQKGAAQLGRKCALVAKADLAGAFSDGSLGEAEKEKLNAAFTRLLAEGKVTAEDTQALAAPFVYVHGDAAKHRRGGVKERKKRESQQESISVVARATQRVRMGVSEEEQVQQLLQREDIRSEFAKERAQQLLKESRKRARESVHDEYDDLQNISL | not soluble
18 | MGSDKIHHHHHHMSHRFFYRILGMRYLTSTNRKGYARMLFHRFSEKEWNFLKNDENNECFSCLMFYSRTGNAGRLEEEITDMKVDILSREYPPKVYGGAGVHAEELSKVLAERVDVTVRAFDGPRTAADIPAIPGTDPKGSLTVVGYDVPKELEDANGALKTFGVDLQIANDVDADIIHAHTWYACLAGYLAKMLHDTPLVITAHSLEPFRPWKREQLGGGYNLSSWAEKDAYEHADRVIAVSAGMREDILTAYPNLDPDKVVVVHNGITMSQFETPADDDPGWKVFERYNIDRSKPTLLFVGRITRQKGLPYLLQALHFVDPNIQVVLCAGAPDTPEIMEEVKTAFAKLDEERGNIIWIEEMLPKPELNALEHGCDAFICPSIYEPLGIVNLEAMACGLPVVASATGGIPEVVVDGETGYLVPVDQLHDGTGTPTNPDKFVHDMADAINRIMADPEKAKRMGQAGYERARDHFSWESIADKTVKVYEDVLAERK | not soluble
